Data on seven molecules can be found in patent US20220025071A1 (BIOMOLECULAR, published 2022).

Substitutions are numbered along the chain they refer to. Names may count otherwise. Bounds are passed on as bounds.

To fix the notation:
T1: Recombinant human Fc gamma receptor IIa, CD32a 131H (human, UniProt P12318 36-218)
T1 sequence (looked up): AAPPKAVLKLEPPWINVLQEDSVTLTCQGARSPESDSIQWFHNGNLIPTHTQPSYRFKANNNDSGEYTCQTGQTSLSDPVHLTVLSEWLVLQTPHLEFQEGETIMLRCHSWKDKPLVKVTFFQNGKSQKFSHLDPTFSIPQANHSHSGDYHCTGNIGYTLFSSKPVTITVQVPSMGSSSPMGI

T2: Recombinant human Fc gamma receptor IIa, CD32a 131R (human, UniProt P12318 36-218)
T2 sequence (looked up): T1 sequence (looked up) with H132R

T3: Recombinant human Fc gamma receptor IIb/c, CD32b/c (human, UniProt P31994 46-217)
T3 sequence (looked up): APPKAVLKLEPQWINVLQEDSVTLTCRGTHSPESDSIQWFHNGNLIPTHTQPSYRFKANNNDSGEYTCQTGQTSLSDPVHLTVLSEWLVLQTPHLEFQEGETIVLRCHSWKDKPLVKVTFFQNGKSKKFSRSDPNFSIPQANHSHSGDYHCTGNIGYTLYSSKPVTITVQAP

T4: CD20 Lipoparticles (UniProt P11836 1-297)
T4 sequence (looked up): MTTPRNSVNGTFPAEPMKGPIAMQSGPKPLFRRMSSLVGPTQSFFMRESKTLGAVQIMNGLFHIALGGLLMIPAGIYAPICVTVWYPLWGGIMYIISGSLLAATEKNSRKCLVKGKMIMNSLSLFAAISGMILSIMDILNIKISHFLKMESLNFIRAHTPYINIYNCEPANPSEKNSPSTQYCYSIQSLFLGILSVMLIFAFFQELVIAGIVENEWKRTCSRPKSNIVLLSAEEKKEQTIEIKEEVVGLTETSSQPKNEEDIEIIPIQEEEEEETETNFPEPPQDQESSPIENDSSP

T5: CD19 (UniProt P15391 20-291)
T5 sequence (looked up): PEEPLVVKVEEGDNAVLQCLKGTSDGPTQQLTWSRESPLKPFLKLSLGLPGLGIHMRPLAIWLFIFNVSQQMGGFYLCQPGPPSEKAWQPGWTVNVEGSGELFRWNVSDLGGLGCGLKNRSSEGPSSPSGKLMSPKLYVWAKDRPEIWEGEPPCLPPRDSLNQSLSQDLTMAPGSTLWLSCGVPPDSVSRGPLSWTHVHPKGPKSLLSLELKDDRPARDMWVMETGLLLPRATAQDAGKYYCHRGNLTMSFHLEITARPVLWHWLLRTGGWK

B1: Rc66SIDE (one-arm antibody) (antibody, human IgG1, kappa)
light: QIVLSQSPAILSASPGEKVTMTCRASSSVSYIHWFQQKPGSSPKPWIYATSNLASGVPVRFSGSGSGTSYSLTISRVEAEDAATYYCQQWTSNPPTFGGGTKLEIKRTVAAPSVFIFPPSDEQLKSGTASVVCLLNNFYPREAKVQWKVDNALQSGNSQESVTEQDSKDSTYSLSSTLTLSKADYEKHKVYACEVTHQGLSSPVTKSFNRGEC
heavy: QVQLQQPGAELVKPGASVKMSCKASGYTFTSYNMHWVKQTPGRGLEWIGAIYPGNGDTSYNQKFKGKATLTADKSSSTAYMQLSSLTSEDSAVYYCARSTYYGGDWYFNVWGAGTTVTVSAASTKGPSVFPLAPSSKSTSGGTAALGCLVKDYFPEPVTVSWNSGALTSGVHTFPAVLQSSGLYSLSSVVTVPSSSLGTQTYICNVNHKPSNTKVDKKAEPKSCDKTHTCPPCPAPELLGGPDVFLFPPKPKDTLMISRTPEVTCVVVDVSHEDPEVKFNWYVDGVEVHNAKTKPREEQYNSTYRVVSVLTVLHQDWLNGKEYKCKVSNKALPAPEEKTISKAKGQPREPQVYVLPPSRDELTKNQVSLLCLVKGFYPSDIAVEWESNGQPENNYLTWPPVLDSDGSFFLYSKLTVDKSRWQQGNVFSCSVMHEALHNHYTQKSLSLSPGK
chain: CPPCPAPELLGGPDVFLFPPKPKDTLMISRTPEVTCVVVDVSHEDPEVKFNWYVDGVEVHNAKTKPREEQYNSTYRVVSVLTVLHQDWLNGKEYKCKVSNKALPAPEEKTISKAKGQPREPQVYVYPPSRDELTKNQVSLTCLVKGFYPSDIAVEWESNGQPENNYKTTPPVLDSDGSFALVSKLTVDKSRWQQGNVFSCSVMHEALHNHYTQKSLSLSPGK
B2: Rc66SIDE-P4-Rc66SIDE (antibody, human IgG1, kappa)
light: B1 light
heavy: B1 heavy
chain: B1 chain
B3: Rc66SIDE-P28-Rc66SIDE (antibody, human IgG1, kappa)
light: B1 light
heavy: B1 heavy
chain: B1 chain
B4: Rc66SIDE-P16-Rc66SIDE (antibody, human IgG1, kappa)
light: B1 light
heavy: B1 heavy
chain: B1 chain
B5: B19c66 (one-arm antibody) (antibody, human IgG1, kappa)
light: not shown
heavy: not shown
chain: B1 chain with D14S, E107I
B6: B19c66AAC9 (one-arm antibody) (antibody, human IgG1, kappa)
light: not shown
heavy: QVQLQQSGAELVRPGSSVKISCKASGYAFSSYWMNWVKQRPGQGLEWIGQIWPGDGDTNYNGKFKGKATLTADESSSTAYMQLSSLASEDSAVYFCARRETTTVGRYYYAMDYWGQGTTVTVSSASTKGPSVFPLAPSSKSTSGGTAALGCLVKDYFPEPVTVSWNSGALTSGVHTFPAVLQSSGLYSLSSVVTVPSSSLGTQTYICNVNHKPSNTKVDKKVEPKSCDKTHTCPPCPAPKRRGGPSVFLFPPKPKDTLMISRTPEVTCVVVDVSHEDPEVKFNWYVDGVEVHNAKTKPREEQYNSTYRVVSVLTVLHQDWLNGKEYKCKVSNKALPAPIEKTISKAKGQPREPQVYVLPPSRDELTKNQVSLLCLVKGFYPSDIAVEWESNGQPENNYLTWPPVLDSDGSFFLYSKLTVDKSRWQQGNVFSCSVMHEALHNHYTQKSLSLSPGK
chain: B1 chain with L9D, L10E, D14S, E107I
B7: ACE2Fc-740HA201RF/O24A-DHS (bispecific antibody)
chain: not shown
light: not shown
heavy: QAYLQQSGAELVRPGASVKMSCKASGYTFTSYSMHWVKQTPRQGLEWIGAIYPGNDDTSYNQKFKGKATLTVDRSSSTAYMQLSSLTSEDSAVYFCTRDYSNYPFDYWGQGTTLTVSSASTKGPSVFPLAPSSKSTSGGTAALGCLVKDYFPEPVTVSWNSGALTSGVHTFPAVLQSSGLYSLSSVVTVPSSSLGTQTYICNVNHKPSNTKVDKKVEPKSCDKTHTCPPCPAPELLGGPSVFLFPPKPKDTLMISRTPEVTCVVVDVSHEDPEVKFNWYVDGVEVHNAKTKPREEQYNSTYRVVSVLTVDHHDWLNGKEYKCKVSNKALPAPIEKTISKAKGQPREPQVYTLPPCRDELTKNQVSLWCLVKGFYPSDIAVEWESNGQPENNYKTTPPVLDSDGSFFLYSKLTVDKSRWQQGNVFSCSVMHEALHSHYTQKSLSLSPG
notes: also called 15-23

T6 sequence (P08637 17-208 F176V limits assumed): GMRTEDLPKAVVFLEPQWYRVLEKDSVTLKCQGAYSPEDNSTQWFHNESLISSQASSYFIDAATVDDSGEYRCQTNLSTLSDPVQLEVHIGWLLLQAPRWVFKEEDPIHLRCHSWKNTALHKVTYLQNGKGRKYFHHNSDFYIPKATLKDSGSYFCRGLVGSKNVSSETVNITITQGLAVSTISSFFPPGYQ
Chain of Recombinant human Fc gamma receptor I, CD64 (P12314 16-288 limits assumed): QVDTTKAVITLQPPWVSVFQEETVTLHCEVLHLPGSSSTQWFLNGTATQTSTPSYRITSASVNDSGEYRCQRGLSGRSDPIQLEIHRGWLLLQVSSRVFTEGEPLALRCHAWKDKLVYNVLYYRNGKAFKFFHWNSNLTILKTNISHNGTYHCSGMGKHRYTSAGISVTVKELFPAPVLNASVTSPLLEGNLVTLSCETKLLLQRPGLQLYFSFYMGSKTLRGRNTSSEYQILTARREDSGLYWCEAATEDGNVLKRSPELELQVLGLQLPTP

The target in one experiment is Recombinant human Fc gamma receptor IIIa, CD16a 158F (human, UniProt P08637 17-208).
Chain of Recombinant human Fc gamma receptor IIIa, CD16a 158F (P08637 17-208 limits assumed): as the sequence (P08637 17-208 F176V limits assumed) above, with V160F counted along it
Experiment: not given
On to B1, for which the Kd turned out to be 76.8 nM.
For the molecule B2, the Kd is 3.87 nM.
Same read-out and setting: to B3 belongs 6.62 nM.
On the same count and under the same terms, then B4, with 2.71 nM.

A further experiment concerns the target T6, Recombinant human Fc gamma receptor IIIa, CD16a 158V (human, UniProt P08637 17-208).
Experiment: not given
Regarding B1, the Kd amounted to 46.2 nM.
On the same count and under the same terms, to B2 belongs 1.14 nM.
B3: the Kd was determined as 4.98 nM.
The same measure, in the same setting: then B4, with 0.257 nM.

A further experiment deals with Recombinant human Fc gamma receptor IIIb, CD16b (human, UniProt O75015 17-200).
Chain of Recombinant human Fc gamma receptor IIIb, CD16b (O75015 17-200 limits assumed): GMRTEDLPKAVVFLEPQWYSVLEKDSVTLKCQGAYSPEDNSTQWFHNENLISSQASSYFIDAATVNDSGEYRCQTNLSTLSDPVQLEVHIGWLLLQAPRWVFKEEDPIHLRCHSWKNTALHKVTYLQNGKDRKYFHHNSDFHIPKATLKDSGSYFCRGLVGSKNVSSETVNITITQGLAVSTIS
Experiment: not given
On to B1, for which the Kd was determined as 163 nM.
Still for that read-out and setting: to B2 belongs 1.05 nM.
As to B3, the Kd turned out to be 5.64 nM.
With B4, the Kd was < 0.001 nM.

The target in a further experiment is T1, Recombinant human Fc gamma receptor ….
Experiment: not given
With B1, the Kd came to 255 nM.
On the same count and under the same terms, then B2, with 2.54 nM.
Still for that read-out and setting: then B3, with 5.42 nM; and B4, with 0.808 nM.

The target in another experiment is T2, Recombinant human Fc gamma receptor ….
Experiment: not given
On to B1, for which the Kd stood at 202 nM.
Same read-out and setting: to B2 belongs 4.93 nM.
Same read-out and setting: to B3 belongs 8.11 nM.
On the same count and under the same terms, then B4, with 1.83 nM.

A further experiment concerns the target T3, Recombinant human Fc gamma receptor ….
Experiment: not given
Consider B1, for which the Kd turned out to be 253 nM.
On to B2, for which the Kd was determined as 3.17 nM.
For B3, the Kd turned out to be 7.28 nM.
As to B4, the equilibrium dissociation constant (Kd) was 0.556 nM.

A further experiment addresses Recombinant human Fc gamma receptor I, CD64 (human, UniProt P12314 16-288).
Experiment: not given
As to B2, the Kd was < 0.001 nM.
Consider B3, for which the Kd came out at 1.14 nM.
For the molecule B4, the Kd is < 0.001 nM.

In a further experiment the target is T6, Recombinant human Fc gamma receptor ….
Experiment: not given
This is another data set of the same source.
B5: the Kd came to 234 nM.

In another experiment the target is T4, CD20 Lipoparticles.
Experiment: not given
As for B1, the Kd turned out to be 21.4 nM.
On to B2, for which the Kd is < 0.001 nM.
Still for that read-out and setting: to B3 belongs < 0.001 nM; to B4, < 0.001 nM.

For another experiment, the target named is T5, CD19.
Experiment: not given
B5 had a Kd of 21.8 nM.
Same read-out and setting: to B6 belongs 21 nM.

Another experiment has as its target T3, Recombinant human Fc gamma receptor …. The experiment is described as follows: SPR (Carterra LSA).
For the molecule B7, the binding result was “no binding (tested: up to 2000 nM)”.
